Laboratory results published in the supplement of paper PMC10567573.
± gives the standard deviation.

Assay: protein stability index of a GFP-peptide fusion (GPS, HEK-293T) (PSI 1-6); higher = more stable
[1] = treatment: DMSO, c terminus: a fixed tail appended
[2] = treatment: MLN4924 1 uM, 8 h, c terminus: a fixed tail appended
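Further: 24-mer peptide tiles fused after GFP, lentivirally expressed, FACS-sorted into six equal bins by GFP/DsRed ratio, decoded by Illumina sequencing, PSI is the read-weighted mean bin number.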

Row | Sequence | protein stability index [1] | protein stability index [2] | protein stability index (treatment: DMSO, c terminus: native) | protein stability index (treatment: MLN4924 1 uM, 8 h, c terminus: native)
1 | WRKRFRPREHHGRGGMLSASAETL [PPFIA4] | 3.15 ± 0.22 | 3.26 ± 0.056 | – | –
2 | RKAALEQDLAFWYGPRWQEVIPYT [HMOX1] | 2.33 ± 0.23 | 2.54 ± 0.39 | – | –
3 | APFGRISDARVVKDMATGKSKGYG [TIA1] | 4.47 ± 0.17 | 4.35 ± 0.18 | – | –
4 | RPVILDPADPTGNLGGGDPKGWRQ [OAS1] | 4.28 ± 0.18 | 4.47 ± 0.18 | – | –
5 | SPALSQGHVTGSKTTKDATGPDT [PSD2] | – | – | 5.33 ± 0.28 | 5.43 ± 0.23
6 | LKYVRGLLQTEPQNNQAKELERLI [FIS1] | 2.89 ± 0.29 | 3.02 ± 0.29 | – | –
7 | PCCSSSPEEPLNGESYESCCPTSR [FEM1A] | 4.28 ± 0.22 | 4.64 ± 0.31 | – | –
8 | ELEIELQSQLSMKAGLENSLAETE [KRT15] | 4.77 ± 0.33 | 4.75 ± 0.25 | – | –
9 | KVIDDTNITRLQLETEIEALKEEL [KRT18] | 4.2 ± 0.18 | 4.36 ± 0.23 | – | –
10 | SCPEGDASECPQATNAKDSGCSSP [PPEF2] | 5.63 ± 0.34 | 5.7 ± 0.27 | – | –
11 | AYACLVCGKYFQGRGLKSHAYIHS [USP39] | 2.29 ± 0.27 | 2.51 ± 0.52 | – | –
12 | NLFVPLNTNPKEVQEMRNKIREQN [ADD1] | 4.29 ± 0.18 | 4.18 ± 0.24 | – | –
13 | LLFSGGLSESETGPMEEVERQVLP [PBXIP1] | 4.06 ± 0.27 | 4.18 ± 0.38 | – | –
14 | TGNVCIEEIDVDGKFIRLKNTSEQ [LMNB1] | 4.76 ± 0.29 | 4.76 ± 0.15 | – | –
15 | NRNQRIVQLIQDTRIHILPSMNPD [CPN1] | 2.95 ± 0.12 | 3 ± 0.25 | – | –
16 | IINTKKLSARDHQKLEREARICRL [CAMK2A] | 3.19 ± 0.23 | 3.27 ± 0.25 | – | –
17 | DGSVRIWELREKQQLAAEPVPTGF [WDR41] | 3.87 ± 0.16 | 3.72 ± 0.32 | – | –
18 | ATKQLDFTRKTLAEKKQELDKLRN [SASS6] | 4.19 ± 0.26 | 4.43 ± 0.24 | – | –
19 | ANAHTYHINSISVNSDYETYMSAD [PPP2R2B] | 3.81 ± 0.24 | 3.8 ± 0.22 | – | –
20 | EEINKNISDFGRQQLLPPFPSLHQ [EHMT1] | 3.08 ± 0.27 | 3.64 ± 0.4 | – | –
21 | QSFCGENIMMPMGGMMPPGPGIPP [ZNF207] | 3.15 ± 0.31 | 3.27 ± 0.26 | – | –
22 | FEDAKEKMREFTKTIKRPFGVKYN [TPH1] | 2.9 ± 0.21 | 3.1 ± 0.26 | – | –

Row | Sequence | protein stability index [1] | protein stability index [2] | protein stability index (treatment: DMSO, c terminus: native) | protein stability index (treatment: MLN4924 1 uM, 8 h, c terminus: native)
23 | HMEDPRRAGKMLMTLPLLRQTSTK [ESRRG] | 3.63 ± 0.16 | 3.7 ± 0.28 | – | –
24 | NGWTCLHWACKRNHGQVVSYLLKS [ANKRD40] | 2.72 ± 0.46 | 2.29 ± 0.43 | – | –
25 | FLIGAYAVIYLKKTPEEAYRALLS [CDC14A] | 2.71 ± 0.8 | 2.7 ± 0.6 | – | –
26 | MDIGQPKDFLTGMCLFLQSLRQKQ [GMPPB] | 2.46 ± 0.11 | 2.72 ± 0.39 | – | –
27 | EDGSVELESQVQKDGVADSTVISS [C18orf25] | 5.5 ± 0.2 | 5.42 ± 0.28 | – | –
28 | ARNIGFKVNSKKMLGKYNTPVSYR [ACSBG2] | 2.32 ± 0.37 | 2.55 ± 0.14 | – | –
29 | VVETINAAIGVTTSPVLPSLIQLL [HACD3] | 2.89 ± 0.74 | 2.81 ± 0.4 | – | –
30 | PDGLRSGDGVPPRSLQDGTREGFG [LCOR] | 4.95 ± 0.11 | 5.15 ± 0.16 | – | –
31 | DHSGFISLDEFRQTWKLFSSHMNI [PPEF2] | 2.29 ± 0.26 | 2.08 ± 0.36 | – | –
32 | NCVLSSSPNPFPEISRGEYLYTYD [ZNF8] | 2.76 ± 0.42 | 3.01 ± 0.3 | – | –
33 | LPNASADSLGGSQEMVQRPQPHRN [TRAF3IP2] | 5.25 ± 0.13 | 5.26 ± 0.16 | – | –
34 | QNPVLSKLLMADQDSPLDLTVRKS [LCOR] | 4.14 ± 0.27 | 4.25 ± 0.21 | – | –
35 | FYQLVWSALPFITYLENKGHRYPC [POP5] | 2.88 ± 0.69 | 3.09 ± 0.53 | – | –
36 | LSPDIMKDAYVQKLVKVCNGHDCW [TENT5D] | 2.41 ± 0.72 | 2.35 ± 0.17 | – | –
37 | KILRSMSRKVTTNKLLLSIIILLE [VTI1B] | 2.48 ± 0.53 | 2.32 ± 0.42 | – | –
38 | FMEKRNQWLVSQLSAASPDTGHDS [TRAF3IP2] | 2.76 ± 0.34 | 3.21 ± 0.58 | – | –
39 | LKLWEIGKIIGGMWRDLTDEEKQE [SMARCE1] | 2.67 ± 0.55 | 3.44 ± 0.43 | – | –
40 | KNWWVRGILTLAMIAFFFIIIYLG [CDS2] | 3.07 ± 0.36 | 2.85 ± 0.52 | – | –
41 | WGYIRYSGQYRELGGAIDFGAAYV [ATL3] | 2.56 ± 0.68 | 2.53 ± 0.69 | – | –
42 | QMPQEEVELLPPAPKGKGRKPAAG [BRD3] | 4.98 ± 0.39 | 5.1 ± 0.18 | – | –
43 | YGRFIRWLNKEKGIFKIEDSAQVA [SPDEF] | 2.37 ± 0.35 | 2.48 ± 0.2 | – | –
44 | YETKYVVLSYLGLLSQEKLQEQHL [BCL2L13] | 2.63 ± 0.49 | 2.62 ± 0.46 | – | –
